Consider 7 molecules from patent publication US20230414735A1, “NEOANTIGENS AND METHODS OF THEIR USE” (priority 2016, published 2023).

For experiment [1], the target named is HLA-B08:01 (human). Briefly: pMHC-I dissociation, 125I-b2m. The note with it: remark: other sources report otherwise.
Experiment [2] deals with HLA-B08:01 (human). In words: competition with 125I probe peptide for purified HLA class I. The note with it: remark: other sources report otherwise.
In experiment [3] the target is HLA-B08:01 (human). In words: competition with 125I probe peptide on purified HLA.

MALNSEALSV: the Stability (T1/2 (h)) with HLA-B08:01 (human) [1] is 0 h.

One may read the IC50 as the concentration at which inhibition is half-maximal. Read a low IC50 as inhibition by little substance. With MNWRPILTI, the Stability (T1/2 (h)) with HLA-B08:01 (human) [1] amounted to 0 h. In the experiment with HLA-B08:01 (human) [2], the IC50 stood at 1 nM.

The molecule NQRPILTII displayed an IC50 in the experiment with HLA-B08:01 (human) [2] of 20 nM.

GMNWRPILTI gave a Stability (T1/2 (h)) with HLA-B08:01 (human) [1] of 0 h.

In the experiment with HLA-B08:01 (human) [1], LPRKPTRAA returned a Stability (T1/2 (h)) of 0 h.

CMGSMNRRPI had an IC50 with HLA-B08:01 (human) [2] of 80 nM.

In the case of SLRRKYLRV, the IC50 with HLA-B08:01 (human) [3] was 0.4 nM.
